For test [1], the target named is T1, Cdc2b (Cdc2bAt) in DB-vector (A. thaliana, UniProt P04386 1-147; P25859 1-309).
T1 construct: Yeast two-hybrid DB/BD fusion
Description: yeast two-hybrid (MaV203), X-Gal filter assay for β-galactosidase; AD construct x BD construct. As to the method: (§1) ⁽¹⁾For each interaction test, yeast strain (MaV203) was transformed first with AD constructs listed in the first row, and then with BD constructs listed in the first column of the table following standard protocol. Three independent colonies from each interaction combination were used in X-Gal filter assay for β-galactosidase activity. The results of X-Gal assays were recorded at 2, 4, and 20 hours (overnight). Color intensity determined by visual inspection: “−” = none; “+” = weak; “++” = moderate; “+++” = strong. ⁽²⁾Faint color was visible after overnight incubation.

Test [2] concerns the target T2, Cdc2a (Cdc2aAt) in DB-vector (Arabidopsis, UniProt P04386 1-147; P24100 1-294).
T2 construct: Yeast two-hybrid DB/BD fusion; also called Arath;CDKA;1
The test is described as above. As to the method: as §1

The target in test [3] is T3, CycD1 (Arath; CycD1; 1) in DB-vector (A. thaliana, UniProt P04386 1-147; P42751 1-339).
T3 construct: Yeast two-hybrid DB/BD fusion
Described as above. As to the method: as §1

In test [4] the target is T4, CycD2 (Arath; CycD2; 1) in DB-vector (Arabidopsis, UniProt P04386 1-147; P42752 1-361).
T4 construct: Yeast two-hybrid DB/BD fusion; also called cyclin D2
Described as above. As for the experimental part:
as §1

Test [5] concerns the target T2, Cdc2a (Cdc2aAt) in DB-vector. Nature of the test: yeast two-hybrid, quantification of reporter activity; ICK1 in GAL4-AD vector, partner in DB vector.
For the next test, the target named is T5, ATMAP2 in DB-vector (A. thaliana).
T5 construct: Yeast two-hybrid DB fusion; also called MAP kinase
Described as above.

For test [6], the target named is T3, CycD1 (Arath; CycD1; 1) in DB-vector. The description is as above.
The target of test [7] is T6, vector alone (DB-vector without a gene) (UniProt P04386 1-147).
T6 construct: also called Control
Described as above.

The target in test [8] is T7, CycA2 (Arath; CycA2; 2) in DB-vector (A. thaliana, UniProt P04386 1-147; Q147G5 1-436, limits assumed).
T7 construct: Yeast two-hybrid DB fusion
The description is as above.

For test [9], the target named is T8, CycB2 (Arath; CycB2; 2) in DB-vector (A. thaliana, UniProt P04386 1-147; Q39070 1-429).
T8 construct: Yeast two-hybrid DB fusion
Described as above.

Test [10] addresses T9, CycD3 (Arath; CycD3; 1) in DB-vector (Arabidopsis, UniProt P04386 1-147; P42753 1-376).
T9 construct: Yeast two-hybrid DB/BD fusion; also called cyclin D3
The description is as above.

Test [11] concerns the target T10, CycB1 (Arath; CycB1; 1) in DB-vector (A. thaliana, UniProt P04386 1-147; P30183 1-428).
T10 construct: Yeast two-hybrid DB fusion; also called Cyc1At
The description is as above.

Test [12] deals with T4, CycD2 (Arath; CycD2; 1) in DB-vector. The test is described as above.
Another test deals with T11, PCNAAt in DB-vector (Arabidopsis).
T11 construct: Yeast two-hybrid DB/BD fusion; also called Arabidopsis PCNA
The test is described as above.

The target of test [13] is T1, Cdc2b (Cdc2bAt) in DB-vector. The description is as above.

B1: ICK2 (AD construct) (other, not shown: large carriers)
chain: MAAVRRRERDVVEENGVTTTTVKRRKMEEEVDLVESRIILSPCVQATNRGGIVARNSAGASETSVVIVRRRDSPPVEEQCQIEEEDSSVSCCSTSEEKSKRRIEFVDLEENNGDDRETETSWIYDDLNKSEESMNMDSSSVAVEDVESRRRLRKSLHETVKEAELEDFFQVAEKDLRNKLLECSMKYNFDFEKDEPLGGGRYEWVKLNP
In the case of B1, the binding result in [1] is “no binding”.

B2: ICN2 (AD construct) (other, not shown: large carriers)
chain: KKKQRERAHKNPREKKMSERKRELAEEASSTSFSPLKKTKLNDSSDSSPDSHDVIVFAVSSSSVASSAALASDECSVTIGGEESDQSSSISSGCFTSESKEIAKNSSSFGVDLEDHQIETETETSTFITSNFRKETSPVSEGLGETTTEMESSSATKRKQPGVRKTPTAAEIEDLFSELESQDDKKKQFIEKYNFDIVNDEPLEGRYKWDRL
notes: also called ICK4
B2: the binding result in test [2] and in test [1] was “no binding” each time.

B3: CKS1At (AD construct) (other, UniProt O23249 1-87, looked up, not shown: large carriers)
chain: MGQIQYSEKYFDDTFEYRHVVLPPEVAKLLPKNRLLSENEWRAIGVQQSRGWVHYAVHRPEPHIMLFRRPLNYQQQQENQAQNMLVK
B3: the binding result in test [3] and in test [4] was “no binding” in each case.

B4: ICN8 (AD construct) (other, not shown: large carriers)
chain: MGKYIRKSKIDGAGAGAGGGGGGGGGGESSIALMDVVSPSSSSSLGVLTRAKSLALQQQQQRCLLQKPSSPSSLPPTSASPNPPSKQKMKKKQQQMNDCGSYLQLRSRRLQKKPPIVVIRSTKRRKQQRRNETCGRNPNPRSNLDSIRGDGSRSDSVSESVVFGKDKDLISEINKDPTFGQNFFDLEEEHTQSFNRTTRESTPCSLIRRPEIMTTPGSSTKLNICVSESNQREDSLSRSHRRRPTTPEMDEFFSGAEEEQQKQFIEKYNFDPVNEQPLPGRFEWTKVDD
notes: Yeast two-hybrid AD fusion; also called ICK7
In the case of B4, in [1], the binding result is “no binding”.

B5: ICN6 (AD construct) (other, not shown: large carriers)
chain: LSPEKTIMSLREMSETKPKRDSEYEGSNIKRMRLDDDDDVLRSPTRTLSSSSSSSLAYSVSDSGGFCSVALSEEEDDHLSSSISSGCSSSETNEIATRLPFSDLEAHEISETEISTLLTNNFRKQGISSSENLGETAEMDSATTEMRDQRKTEKKKKMEKSPTQAELDDFFSAAERYEQKRFTEKYNYDIVNDTPLEGRYQWVSLKP
notes: also called ICK5
Turning to B5, the binding result in test [2] and in test [1] was “no binding” each time.

B6: ICN7 (AD construct) (other, not shown: large carriers)
chain: MGKYMKKSKITGDISVMEVSKATAPSPGVRTRAAKTLALKRLNSSAADSALPNDSSCYLQLRSRRLEKPSSLIEPKQPPRVHRSGIKESGSRSRVDSVNSAPVAQSSNEDECFDNFVSVQVSCGENSLGFESRHSTRESTPCNFVEDMEIMVTPGSSTRSMCRATKEYTREQDNVIPTTSEMEEFFAYAEQQQQRLFMEKYNFDIVNDIPLSGRYEWVQVKP
notes: also called ICK6
On to B6, for which the binding result in test [1] is given as “no binding”.

B7: ICDK of Chenopodium rubrum (AD construct) (other, not shown: large carriers)
chain: MAAAATPTSSPAKKIKKVSKSSYNIPQLRSRRKNLSAPENFAELETTPLEVAAVVEEEEVANCSSSEVITTARSDFPPSCCSSNYDQLSSSEPEVVKDDDGLGNRTADPEVESGEASSKQKESHRTEAREATKLDDQDYPATKSTVQIKMPSDSEIEEFFAVAEKDLQKRFSEKYNFDIVKDVPLKGRYDWVPINP
notes: Yeast two-hybrid AD fusion; also called ICKCr; Chenopodium ICDK
Turning to B7, the binding result in test [2] and in test [1] was “no binding” throughout.

B8: ICK1 in a GAL4-activation domain vector (other, not shown: large carriers)
chain: MVRKYRKAKGIVEAGVSSTYMQLRSRRIVYVRSEKSSSVSVVGDNGVSSSCSGSNEYKKKELIHLEEEDKDGDTETSTYRRGTKRKLFENLREEEKEELSKSMENYSSEFESAVKESLDCCCSGRKTMEETVTAEEEEKAKLMTEMPTESEIEDFFVEAEKQLKEKFKKKYNFDFEKEKPLEGRYEWVKLE
notes: Yeast two-hybrid AD fusion; the GAL4 domain is placed first as in standard vectors
On to B8, for which, in test [1], the binding result is “no binding”. In addition, the “Quantification (yeast two-hybrid reporter activity)” value worked out at 2.65 in test [5]; 0 with ATMAP2 in DB-vector; 3.13 in test [6]; 0 in test [7]; 0.03 in [8]; 0.05 in [9]. Further, the “Quantification (yeast two-hybrid reporter activity)” value was determined as 22.7 in test [10]; 0.06 in test [11]; 14.8 in test [12]; 0 in the test with PCNAAt in DB-vector; 0 in test [13].

For the origin of these results see patent US20040098763A1 (published 2004).
